These results are taken from patent US20250339569A1 (3B PHARMACEUTICALS, published 2025).

The target in assay [1] is human carbonic anhydrase 9 (CAIX) (human, UniProt Q16790 38-459). The experiment in a line: FACS binding assay on CAIX-expressing HT-29 cells, biotinylated compound detected with APC-streptavidin; pEC50 category (A = pEC50 >8.0). The protocol:
(§1) CAIX-expressing human HT-29 colorectal cancer cells (DSMZ, RRID: CVCL_0320) were cultured in McCoys's 5A modified medium (Biochrom, #F1015) including 10% fetal calf serum (FCS), 2 mM L-glutamine, 100 U/ml penicillin and 100 μg/mL streptomycin. Cells were detached with Accutase (Biolegend, #423201) and washed in FACS buffer (PBS including 1% FCS). Cells were diluted in FACS buffer to a final concentration of 500.000 cells per ml. 200 μL of the cell suspension were transferred to a u-shaped non-binding 96-well plate (Greiner) and cells were washed in ice-cold FACS buffer.
(§2) When biotinylated compounds were used an additional incubation step with 1 μg/mL APC-Streptavidin (Miltenyi; #130-106-791) in 50 μL FACS buffer for 30 minutes on ice was performed.
(§3) Cells were washed twice with ice-cold FACS buffer and analyzed in an Attune NxT flow cytometer (Thermo Fisher). Median fluorescence intensities (MFI) of the APC/Cy5-channel were calculated by Attune NxT software.

Assay [2] shares this target. Briefly: FACS competition on HT-29 cells, competitor tracer 3BP-4149; category A = pIC50 >8.0. The protocol:
as §1, §2, §3

The target of assay [3] is T1, Fc-fusion protein of human carbonic anhydrase IX (human, UniProt Q16790 38-414). The experiment in a line: SPR, captured hCAIX-Fc; t1/2 category C: 2.1-5.0 min. On the technique in general: In SPR one partner is held on a chip, and binding of the other changes the refractive index at the surface.
Assay [4] deals with T2, human carbonic anhydrase IX (CAIX) (human, UniProt Q16790 38-459). The experiment in a line: FACS competition, HT-29 cells, tracer 3BP-2776; pIC50 category B: 7.1-8.0. The protocol:
as §1, §2, §3

In assay [5] the target is T1, Fc-fusion protein of human carbonic …. The experiment in a line: SPR, captured hCAIX-Fc; pKD category B: 7.1-8.0. The protocol: (§4) Stock solutions of test compounds were prepared by dissolving each compound in DMSO. DMSO stock solution were diluted 1:1000 in Running Buffer without DMSO. […] SPR binding analyses were performed in Single Cycle Kinetic (SCK) mode at 25° C.
(§5) For each test compound, SPR raw data in the form of resonance units (RU) were plotted as sensorgrams using the Biacore™ T200 control software. The signal from the blank sensorgram was subtracted from that of the test compound sensorgram (blank corrected). The blank corrected sensorgram was corrected for baseline drift by subtracting the sensorgram of a SCK run without the test compound (running buffer only). […] Raw data and fit results were imported as text files in IDBS. The pKD value (negative decadic logarithm of dissociation constant) was calculated in the IDBS excel template.

Assay [6] deals with T2, human carbonic anhydrase IX (CAIX). The experiment in a line: FACS competition, HT-29 cells, tracer 3BP-4149; pIC50 category C: 6.1-7.0. The protocol: as §1, §2, §3
The target of assay [7] is T1, Fc-fusion protein of human carbonic …. The experiment in a line: SPR, captured hCAIX-Fc; t1/2 category D: <=2.0 min. The protocol:
as §4, §5

For assay [8] the target is unchanged. Briefly: SPR, captured hCAIX-Fc; t1/2 category A: >15.0 min.
Assay [9] shares this target. Briefly: SPR, captured hCAIX-Fc; pKD category A: >8.0.

Starred links: 1 amine or outer side, 2 acyl side, 3 side chain; linkers in the order of their positions; H or OH if unused. Positions of bridges follow the written chain, without caps; N, C: chain ends. Non-standard residues stand in square brackets, D forms with d. Primed or numbered codes have the meaning given here. No end group written: not given here. *: point of attachment. Af3(CMPy) = 3-amino-L-phenylalanine acylated on the ring amine with 5-cyano-1-methyl-1H-pyrazole-4-carboxylic acid, Cn1ncc(C(=O)Nc2cccc(C[C@H](N[*:1])C(=O)[*:2])c2)c1C#N; Af3(Hspy) = 3-amino-L-phenylalanine, ring amine acylated with 4-sulfamoyl-1H-pyrrole-2-carboxylic acid, NS(=O)(=O)c1c[nH]c(C(=O)Nc2cccc(C[C@H](N[*:1])C(=O)[*:2])c2)c1; Aph(4SaPy2Ac) = 4-amino-L-phenylalanine, ring amine acylated by (4-sulfamoyl-pyrazol-1-yl)-acetic acid, NS(=O)(=O)c1cnn(CC(=O)Nc2ccc(C[C@H](N[*:1])C(=O)[*:2])cc2)c1; Aph(6SaPyr3) = 4-amino-L-phenylalanine, ring amine acylated by 6-sulfamoylpyridine-3-carboxylic acid, NS(=O)(=O)c1ccc(C(=O)Nc2ccc(C[C@H](N[*:1])C(=O)[*:2])cc2)cn1; Aph(Hsfu) = 4-amino-L-phenylalanine, ring amine acylated with 4-sulfamoylfuran-2-carboxylic acid, NS(=O)(=O)c1coc(C(=O)Nc2ccc(C[C@H](N[*:1])C(=O)[*:2])cc2)c1; Aph(HO-Succinyl) = 4-aminophenylalanine acylated on the ring amine with succinic acid (free carboxyl), O=C(CCC(=O)[*:3])Nc1ccc(C[C@H](N[*:1])C(=O)[*:2])cc1; Af3(PrHydr) = 3-amino-L-phenylalanine, ring amine acylated by 4-(hydroxycarbamoyl)butanoic acid, O=C(CCCC(=O)Nc1cccc(C[C@H](N[*:1])C(=O)[*:2])c1)NO; Af3(DkpAc) = 3-amino-L-phenylalanine acylated on the ring amine with 2-(3,6-dioxopiperazin-2-yl)acetic acid; Ttds(4) = 1,13-diamino-4,7,10-trioxatridecan-succinamic acid spacer, O=C(CCC(=O)[*:2])NCCCOCCOCCOCCCN[*:1]; Af3(Btda) = 3-amino-L-phenylalanine, ring amine acylated by benzothiadiazine-7-carboxylic acid; Phe(3-NHCO(CH2)3SO2NH2) = N[C@@H](Cc1cccc(NC(=O)CCCS(N)(=O)=O)c1)C(=O)O; APAc″ = 2-(4-(amino)piperidin-1-yl)acetic acid, NC1CCN(CC(=O)*)CC1; DOTA = O=C(O)CN1CCN(CC(=O)O)CCN(CC(=O)*)CCN(CC(=O)O)CC1; Biotin = O=C1N[C@H]2[C@H](CS[C@H]2CCCCC(=O)*)N1; PPAc = 4-carboxymethyl piperazine linker; mXylylene = c1cc(C[*:1])cc(C[*:2])c1; APAc = not defined here; Dap = NC[C@H](N)C(=O)O

B1: 3BP-2778: H-Met-Arg-[Cys(3MeBn)-Glu-Ile-Trp-Val-Asp-Gly-Trp-Val-Asp-Cys]-Ttds-Lys(Bio)-NH2 (peptide)
peptide: H-MRCEIWVDGWVDC[Ttds(4)]K(Biotin)-NH2
modifications: linker 3-13 via mXylylene
SMILES: CC[C@H](C)[C@@H]1NC(=O)[C@H](CCC(=O)O)NC(=O)[C@@H](NC(=O)[C@H](CCCNC(=N)N)NC(=O)[C@@H](N)CCSC)CSCc2cccc(c2)CSC[C@@H](C(=O)NCCCOCCOCCOCCCNC(=O)CCC(=O)N[C@@H](CCCCNC(=O)CCCC[C@@H]2SC[C@@H]3NC(=O)N[C@@H]32)C(N)=O)NC(=O)[C@H](CC(=O)O)NC(=O)[C@H](C(C)C)NC(=O)[C@H](Cc2c[nH]c3ccccc23)NC(=O)CNC(=O)[C@H](CC(=O)O)NC(=O)[C@H](C(C)C)NC(=O)[C@H](Cc2c[nH]c3ccccc23)NC1=O
notes: Cyclic peptide, biotinylated
B1 showed a pEC50 in assay [1] of over 8 pec50.

B2: 3BP-2777: H-Met-Val-Tyr-[Cys(3MeBn)-Glu-Gly-Ser-Trp-Leu-Gly-Trp-Ser-Cys]-Ttds-Lys(Bio)-NH2 (peptide)
peptide: H-MVYCEGSWLGWSC[Ttds(4)]K(Biotin)-NH2
modifications: linker 4-13 via mXylylene
SMILES: CSCC[C@H](N)C(=O)N[C@H](C(=O)N[C@@H](Cc1ccc(O)cc1)C(=O)N[C@H]1CSCc2cccc(c2)CSC[C@@H](C(=O)NCCCOCCOCCOCCCNC(=O)CCC(=O)N[C@@H](CCCCNC(=O)CCCC[C@@H]2SC[C@@H]3NC(=O)N[C@@H]32)C(N)=O)NC(=O)[C@H](CO)NC(=O)[C@H](Cc2c[nH]c3ccccc23)NC(=O)CNC(=O)[C@H](CC(C)C)NC(=O)[C@H](Cc2c[nH]c3ccccc23)NC(=O)[C@H](CO)NC(=O)CNC(=O)[C@H](CCC(=O)O)NC1=O)C(C)C
notes: Cyclic peptide, biotinylated
In turn, B2 showed a pEC50 in assay [1] of over 8 pec50.

B3: 3BP-4338 (peptide)
peptide: DCE[dP]DWLTW[Dap]C-NH2
modifications: lactam 1-10; linker 2-11 via mXylylene; not fully specified (N-terminus); also: indium complexed by DOTA
Molecule B3 displayed a pIC50 in assay [2] of over 8 pic50. For the molecule {DOTA-PPAc}-QCE[dP]D[Af3(Hspy)]LTWSC-NH2 (linker 2-11 via mXylylene) [3BP-4789], the “t1/2 (half-life of the complex, SPR)” value in assay [3] is 2.1 to 5 min. This molecule gave a pIC50 in assay [4] of 7.1 to 8 pic50. This molecule returned a pKD in [5] of 7.1 to 8 pkd.

In the case of {DOTA-PPAc}-QCE[dP]D[Aph(Hsfu)]LTWSC-NH2 (linker 2-11 via mXylylene) [3BP-4813], the “t1/2 (half-life of the complex, SPR)” value in assay [3] fell in the range of 2.1 to 5 min. Further, the pIC50 in [4] lay in the range of 7.1 to 8 pic50. The same molecule came in with a pKD in [5] of 7.1 to 8 pkd. {DOTA-PPAc}-QCE[dP]D[Aph(4SaPy2Ac)]LTWSC-NH2 (linker 2-11 via mXylylene) [3BP-4482] returned a pIC50 in [6] of 6.1 to 7 pic50. As to {DOTA-APAc″}-VYCE[dP]D[Af3(CMPy)]LTWSC-NH2 (linker 3-12 via mXylylene) [3BP-4305], the “t1/2 (half-life of the complex, SPR)” value in assay [7] is at most 2 min. The molecule further showed a pKD in [5] of 7.1 to 8 pkd.

B4: 3BP-4264 (peptide)
peptide: {DOTA}-VDCE[dP]DWLTW[Dap]C-NH2
modifications: lactam 2-11; linker 3-12 via mXylylene
SMILES: CC(C)C[C@@H]1NC(=O)[C@H](Cc2c[nH]c3ccccc23)NC(=O)[C@H](CC(=O)O)NC(=O)[C@H]2CCCN2C(=O)[C@H](CCC(=O)O)NC(=O)[C@@H]2CSCc3cccc(c3)CSC[C@@H](C(N)=O)NC(=O)[C@H](CNC(=O)C[C@H](NC(=O)[C@@H](NC(=O)CN3CCN(CC(=O)O)CCN(CC(=O)O)CCN(CC(=O)O)CC3)C(C)C)C(=O)N2)NC(=O)[C@H](Cc2c[nH]c3ccccc23)NC(=O)[C@H]([C@@H](C)O)NC1=O
In [2], B4 yielded a pIC50 of over 8 pic50. On the same count and under the same terms, for {DOTA-Gab}-DCE[dP]DWLTW[Dap]C-NH2 (lactam 10-1; linker 2-11 via mXylylene) [3BP-4263] the value was over 8 pic50.

B5: 3BP-2776: H-Met-Val-Tyr-[Cys(3MeBn)-Glu-Gly-Asp-Trp-Leu-Thr-Trp-Gln-Cys]-Ttds-Lys(Bio)-NH2 (peptide)
peptide: H-MVYCEGDWLTWQC[Ttds(4)]K(Biotin)-NH2
modifications: linker 4-13 via mXylylene
SMILES: CSCC[C@H](N)C(=O)N[C@H](C(=O)N[C@@H](Cc1ccc(O)cc1)C(=O)N[C@H]1CSCc2cccc(c2)CSC[C@@H](C(=O)NCCCOCCOCCOCCCNC(=O)CCC(=O)N[C@@H](CCCCNC(=O)CCCC[C@@H]2SC[C@@H]3NC(=O)N[C@@H]32)C(N)=O)NC(=O)[C@H](CCC(N)=O)NC(=O)[C@H](Cc2c[nH]c3ccccc23)NC(=O)[C@H]([C@@H](C)O)NC(=O)[C@H](CC(C)C)NC(=O)[C@H](Cc2c[nH]c3ccccc23)NC(=O)[C@H](CC(=O)O)NC(=O)CNC(=O)[C@H](CCC(=O)O)NC1=O)C(C)C
notes: Cyclic peptide, biotinylated
Turning to B5, in assay [1], the pEC50 was over 8 pec50.

Consider {DOTA-PPAc}-QCE[dP]D[Af3(PrHydr)]LTWSC-NH2 (linker 2-11 via mXylylene) [3BP-4515], for which, in assay [3], the “t1/2 (half-life of the complex, SPR)” value lay in the range of 2.1 to 5 min. The molecule also returned a pIC50 in [4] of 7.1 to 8 pic50. As for {DOTA-APAc″}-VYCE[dP]D[Af3(DkpAc)]LTWSC-NH2 (linker 3-12 via mXylylene) [3BP-4288], in assay [7], the “t1/2 (half-life of the complex, SPR)” value was at most 2 min. Besides, in assay [5], the pKD fell in the range of 7.1 to 8 pkd. Turning to {DOTA-PPAc}-DCE[dP]D[Phe(3-NHCO(CH2)3SO2NH2)]LTW[Dap]C-NH2 (lactam 1-10; linker 2-11 via mXylylene) [3BP-4497], the pIC50 in assay [4] was 7.1 to 8 pic50. In addition, in [8], the “t1/2 (half-life of the complex, SPR)” value was over 15 min. The pKD in [9] was over 8 pkd. Regarding {DOTA-APAc}-VYCE[dP]D[Af3(Btda)]LTWSC-NH2 (linker 3-12 via mXylylene; reading uncertain) [3BP-4415], in assay [6], the pIC50 was 6.1 to 7 pic50.

Regarding {DOTA-APAc″}-VYCE[dP]D[Aph(HO-Succinyl)]LTWSC-NH2 (linker 3-12 via mXylylene) [3BP-4356], in [7], the “t1/2 (half-life of the complex, SPR)” value is at most 2 min. Besides, the pKD in assay [5] lay within 7.1 to 8 pkd.

B6: 3BP-4337 (peptide)
peptide: VDCE[dP]DWLTW[Dap]C-NH2
modifications: lactam 2-11; linker 3-12 via mXylylene; not fully specified (N-terminus); also: indium complexed by DOTA
Turning to B6, the pIC50 in assay [2] was over 8 pic50. {DOTA-PPAc}-QCE[dP]D[Aph(6SaPyr3)]LTWSC-NH2 (linker 2-11 via mXylylene) [3BP-4481] returned a pIC50 in assay [6] of 6.1 to 7 pic50.
